# Tested on: HEK293T
# Experiment: median enrichment of reporter reads in eGFP-reduced (low/intermediate) vs eGFP-high sorted cells (eGFP-extension fusion abundance) (ratio); higher = stronger loss of eGFP-fusion protein abundance (more destabilising extension)
# 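Also: lentiviral eGFP-IRES-mCherry reporter pool sorted by FACS 96 h post-transduction, gated on mCherry-high cells, Illumina read counts normalized per million, median across four biological replicates.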
row,Substance,median enrichment
1,SMFESHASLWKQYAM [STAT5A],0.883
2,SMKCLS [FANCI],0.846
3,SML [CTHRC1],3.13
4,SMLIP [ZMYND15],0.546
5,SMLLPGLQKLHGHSSVIGLSLITKITAQDHLPEKHPLA [PLCB1],19.1
6,SMSSDWRIRKIYGPTFDAIF [ZCCHC4],8.58
7,SNGSI [PHF20L1],0.369
8,SNIRFVIRNTLCLLWSCARWPQMDYRRLQRTRQMEH [BCL2L14],16.6
9,SNIWLRCHWLRPTRSSFGWCRDHMHIIPGINTELFVNIAAPVF [LRRC6],12.4
10,SNIYLK [TEX12],0.685
11,SNLSPRRPEVNRHLGRGRACV [NAXD],1.3
12,SNNQQYSRSNQHHHVIMVLWHICNIKILN [ACOX2],5.11
13,SNQFLGLTAM [BTN2A1],0.367
14,SNRIEQNRIE [PCSK5],0.616
15,SNSLRLAAPLGFLPCRTCLEVLPGGGGRGRLDLLS [AQP6],3.45
16,SNTAFNWELETH [PREPL],0.178
17,SNVIPLKRKMNNTLN [HRG],0.435
18,SNWGAFSPEQRGPRHAVERLHLPPFPGQQD [COX14],0.854
19,SPAPHHPQEHSTHHRQPLETSYMSLGAEREVPSPCRTRSCMCLTQVWTGGHLGAGQGHPSLHIT [RABEPK],7.59
20,SPARRPSQRVTRPRGRTDSSDSPQ [EPS8L1],0.338
21,SPELTAQSVDRASVRRHRERPGGSLSMDSQTAGEHLGQPPEGPLLDPRENLLALAVILE [ICOSLG],2.2
22,SPERSQDPSRQHQLTDALVVPPSSPDCARSAVPSSGHLSSLWVPPHPSPC [RBP5],3.81
23,SPF [SDHD],0.337
24,SPGEKL [ZNF322],0.169
25,SPHPAPPPPRPTRRPPDSSPGASSATPSLHPWGPSPPACTEQGLGVSWEA [ITGB4],0.621

row,Substance,median enrichment
1,SPIQKFFLILFHLPISC [TRIO],7.34
2,SPLL [PIK3C2G],0.449
3,SPPGPSPGSGTLVPNPERSALLP [VPS35L],0.894
4,SPQDQGKEDGRTGAKLVGGRGGGGRDDRPWMCPQGPRSEVSTVLPARAPVPPLAATPSPIISFAPRLLRGAPVLAPAPTSAPD [FOXP3],1.18
5,SPQGRAATRRDMPGRGQDKMQTFFFF [APOL1],1.16
6,SPRSWILQCINKRSQAGFISETIN [SGCD],39.2
7,SPSASSRKNKKSRTWQVFSICCKYVY [FBXL13],8.34
8,SPSDYIFNTTPPTPSWVRVSPVCPRPIKSTCHC [GPS2],5.9
9,SPWGGGKG [C6orf47],1.46
10,SPWSLVPGARASPPFHQPHRPLRGWSPLPGHGGRIPLGWSRLEKLLCQVCSLSAIVTSLPRGGDHITKRNSPFSKG [TCF21],3.11
11,SPYPVPRCTNRWGPAPFLPGPHGPLSQEPRPLTSCPLEMVQHSGIYHPHLGPLQPPIKG [MYH14],5.6
12,SPYRKAGRL [BCKDHB],19.5
13,SQAGMSPGSLARVGPQ [TXN2],0.38
14,SQDLVGGTGNWGWEGGNKDIWPS [RNF25],1.76
15,SQESRASLPRIAFIPKFAWK [CMBL],2.33
16,SQFNLKFLISPTTIY [TSEN2],8.83
17,SQGGTTQAPWAPRERGGIRAGQPPGCRCQEQSQAQVAPAACPVPFPKAPLHIEGRKREFRQLHSPFTPNPVFYSPEKRRESHE [STARD8],1.09
18,SQKHVHFGKQACILPVQYLHSTDGTVWRSTFSYFCESIHVGPVSRICTFVPSTVTANLSV [ARHGEF3],10.6
19,SQL [AMBN],0.898
20,SQPSPPSPGAAWGGKSCSLRRAQLAGAVPGHGRFPVTHSLRKPGVIGHLAGQRSWGWF [CLCN6],3.27
21,SQREENILVLFFFQKKRKIKEIYPLLPLHLSQ [SLITRK3],40.1
22,SQSG [PARD6A],1.41
23,SRATGPQQCEGSLAAHPAAGAQPLPGMRLSADGETATQSFGLCVCVCVCVCVCAHPRVPVCVRILPPGAEVPWVSPLLCNGLL [FGFR3],6.49
24,SRDLDLGGVVRSSGRVPPGSPGEYMSPALGGVCYWPPTFLPRWTVLL [OXCT2],3.71
25,SREDVKCLSVNCSAVSKQSSNLQY [RIT1],0.34

row,Substance,median enrichment
1,SREHENGSMTLPDTDAT [TP53],0.734
2,SRETVGG [JUN],3.4
3,SRFCHVNVSLSGLQLRRKRRKT [SMIM11A],5.41
4,SRGSHAPPPPCHSLGPHLPLP [SDC1],0.282
5,SRHIQVSFHHFIYKGDQCHRRVPEEMRSQGLS [MPV17L],4.12
6,SRKFLRCCHLLEMRFVLCLNGLFFKKTKNQMKEHSWGFLFVCVCMCKLMSNCICRSVIVLYCVNYFHCGYFSR [U2SURP],5.89
7,SRL [ICAM4],0.718
8,SRMGLSL [APOBEC3G],0.634
9,SRNMSSQGIETALNSLTSRL [PCLO],3.6
10,SRPEVQATLASGTPPRL [RTP5],0.536
11,SRPHTPALTQLLLGT [GRM2],5.49
12,SRPWSESAPVGILPPPCWPPFSPQPLR [PGAP3],14.1
13,SRR [TMEM52],0.803
14,SRRRLGLCSQGLWLMMIDAPFSHALSSHLASAGQNPSPDVCNLCLEYLGVVEEQIIPSKHQALGFLEQAESQ [USP39],3.94
15,SRSRDDALFSAIYPKLFQI [PCDHB5],2.76
16,SRVSGKKHSCMSICSWNQFL [STYK1],11
17,SRY [IL32],0.749
18,SSAYLGLPKCWDYRREPNAQPRGVVFRDISESEGETQD [APOC1],1.19
19,SSCCHQLALWPRARCLPFMFPHLQSELVVPDDLRSHDLLTCPMILYFVGRSIKQLLLLLCANHSCNFCSAYLPLFEKHAKGSF [ADAMTSL1],4.11
20,SSFIGLNTVCFYQSGHWHCLLFYNHVDTSISKENLSTR [RARS],8.65
21,SSKEVILFCLLIIM [CHMP2B],6.82
22,SSLPWAG [TMEM266],5.32
23,SSMMHGDFHFHIFPFFCFCFSRNGGNPVYSMPVLSYSSLLLYILLLYQKN [HIVEP2],33.7
24,SSNLF [ADPRM],0.584
25,SSS [Ser03],0.352

row,Substance,median enrichment
1,SSSAC [BPTF],0.596
2,SSSS [Ser04],0.471
3,SSSSLFLGNSLLFLPHGRCK [MAX],4.93
4,SSSSS [Ser05],0.298
5,SSSSSS [Ser06],0.35
6,SSSSSSS [Ser07],0.279
7,SSSSSSSS [Ser08],0.512
8,SSSSSSSSS [Ser09],0.295
9,SSSSSSSSSS [Ser10],0.553
10,STARIKNMFPCLSDTSLLDEARKIYMKILKIHIADFMEWTSCISTEKQQHNNTKILGTLK [CDKN1B],38.1
11,STFKAFVK [GATA1],0.381
12,STFLHTQPLLYSTSCPGASHTPELICIILTIFSLLSPFFLFERPSLISKM [TRIM5],16.6
13,STIEICSEM [PCDH11Y],0.758
14,STL [PGRMC2],0.374
15,STRRPSPQKP [ERBB2],0.591
16,STSAHILESYYS [ACADL],0.545
17,STSHAYQVAELGPLGQGAQATSSFVVTKQGSPFPFLLPYFVQRTRVIYIYICICLYPSPHLSDSALGTQLWAARGAVPCGSSC [SCAMP5],5.87
18,STSPAPLRTPPRLDGWAHASHWGPGSRRWAPTLGPRGAANHTGLRPSYPAPSPSTSTFTSPPFHFFLYVFFLLETDSIHIEYN [JUNB],4.9
19,STVKEGVFVWTR [DSC1],2.35
20,SVAGGVTARSPDFTSFGPVLL [UTP14A],0.633
21,SVAHSGKGVLCEHVEA [GATC],0.756
22,SVAMVKVSVAAAAMASRRRCWDCFALEPASGCPLQWLCYCMDCILDFMCMSQ [DYNLL2],11
23,SVCAGDQINRLGCAK [NOSIP],1.17
24,SVDTPAPVGMDGPDFMASGTWAQRGACGRGWENKVQGRDQTAASLYMPS [ITIH3],32.4
25,SVFGKQQRASPLPGGLPCRFWASFPCLSLFRCAFHL [MAP2K1],12.4

row,Substance,median enrichment
1,SVGEWAGMCILLPNSSIQDCAHIRSTRTSSHQHKNINRNAALSTV [WFDC10A],5.12
2,SVGQATPPSSSCLRRSHSIHWNRSWVSLCSCLSFPRDPTPLWGSGTLHCTGSLHTGRGTCAPTSETCRSPQLTCPTGAQHCTQ [MAP3K11],5.17
3,SVGSPSKPRPLKPPLAAPRSSHYLCPEGGKSFPAHPPR [BCL7C],1.39
4,SVGTAQWRRGYSPG [HTR3A],28
5,SVHQLPAPALAPTPSSLKHPPAHCGQLCATRAHGAPPVL [BAIAP3],1.3
6,SVIPGLSTPASPPAAGTALTLLSDPHSFPEMLRMFISPAPDPMSPGLRVCFPHIGLTVSL [KLK5],12.1
7,SVLPAHLGLVLALPRPL [LRSAM1],14.6
8,SVLPSVTSNSGKRKLK [STARD13],0.451
9,SVPLSHPYL [KLK2],0.37
10,SVPRPCQPCCTGCRHCTRCEGSTPAQAEFLGSTSPAAWGTGIAHSVNGSTPAWAESLGSDLAAWGESLGSVLAAWGAGIAQSM [WNT9A],7.93
11,SVQMMWEFVGFLFFFFFDT [ZNF80],7.98
12,SVRLDWGGWHCVGGQLSI [ACTL10],13.7
13,SVS [PACSIN3],0.33
14,SVSGNHEGIWQ [MOAP1],0.522
15,SVVPLFH [KIF22],0.762
16,SVWAGLFNMVFAVLPPWGPWSDNIVSLVRLSRCLIRTANGASPTPPRVRPPFHQRVSSQRPPASCPAAQEEKEGLNSIAIFFP [PDGFB],7.44
17,SVWGLAPCSPGPHCSHTLRLGPPSLLWC [TOM1],8.98
18,SWHSSPHTCSQAQMEVP [ACTL6B],0.404
19,SWPPASASSYLLPGSPPRRPPYRERGFTR [OGG1],6.11
20,SWPPPFPPPAPSPSPTRQLIPGLLSDPFSRGTSGQCPTTHTHHHLTGSSLISDNPHPHCFWGSLSHLSHPVSCLCLSWCLSGL [CCDC97],5.65
21,SWRRPMCIFF [FRAS1],9.68

# — the supplement of paper PMC11502859
